# B1: DynI^dmA-GFP: Transfected GFP-tagged dynamin I double mutant, Ser-774 and Ser-778 to Ala (non-phosphorylatable) (protein)
# chain: MGNRGMEDLIPLVNRLQDAFSAIGQNADLDLPQIAVVGGQSAGKSSVLENFVGRDFLPRGSGIVTRRPLVLQLVNSTTEYAEFLHCKGKKFTDFEEVRLEIEAETDRVTGTNKGISPVPINLRVYSPHVLNLTLVDLPGMTKVPVGDQPPDIEFQIRDMLMQFVTKENCLILAVSPANSDLANSDALKIAKEVDPQGQRTIGVITKLDLMDEGTDARDVLENKLLPLRRGYIGVVNRSQKDIDGKKDITAALAAERKFFLSHPSYRHLADRMGTPYLQKVLNQQLTNHIRDTLPGLRNKLQSQLLSIEKEVDEYKNFRPDDPARKTKALLQMVQQFAVDFEKRIEGSGDQIDTYELSGGARINRIFHERFPFELVKMEFDEKELRREISYAIKNIHGIRTGLFTPDLAFEATVKKQVQKLKEPSIKCVDMVVSELTSTIRKCSEKLQQYPRLREEMERIVTTHIREREGRTKEQVMLLIDIELAYMNTNHEDFIGFANAQQRSNQMNKKKTSGNQDEILVIRKGWLTINNIGIMKGGSKEYWFVLTAENLSWYKDDEEKEKKYMLSVDNLKLRDVEKGFMSSKHIFALFNTEQRNVYKDYRQLELACETQEEVDSWKASFLRAGVYPERVGDKEKASETEENGSDSFMHSMDPQLERQVETIRNLVDSYMAIVNKTVRDLMPKTIMHLMINNTKEFIFSELLANLYSCGDQNTLMEESAEQAQRRDEMLRMYHALKEALSIIGDINTTTVSTPMPPPVDDSWLQVQSVPAGRRAPTSAPTPQRRAPAVPPARPGSRGPAPGPPPAGSALGGAPPVPSRPGASPDPFGPPPQVPSRPNRAPPGVPSRSGQASPSRPESPRPPFDL
# modifications: left off: large carriers
# B2: DynI^dmE-GFP: Transfected GFP-tagged dynamin I double mutant, Ser-774 and Ser-778 to Glu (pseudo-phosphorylation) (protein)
# chain: MGNRGMEDLIPLVNRLQDAFSAIGQNADLDLPQIAVVGGQSAGKSSVLENFVGRDFLPRGSGIVTRRPLVLQLVNSTTEYAEFLHCKGKKFTDFEEVRLEIEAETDRVTGTNKGISPVPINLRVYSPHVLNLTLVDLPGMTKVPVGDQPPDIEFQIRDMLMQFVTKENCLILAVSPANSDLANSDALKIAKEVDPQGQRTIGVITKLDLMDEGTDARDVLENKLLPLRRGYIGVVNRSQKDIDGKKDITAALAAERKFFLSHPSYRHLADRMGTPYLQKVLNQQLTNHIRDTLPGLRNKLQSQLLSIEKEVDEYKNFRPDDPARKTKALLQMVQQFAVDFEKRIEGSGDQIDTYELSGGARINRIFHERFPFELVKMEFDEKELRREISYAIKNIHGIRTGLFTPDLAFEATVKKQVQKLKEPSIKCVDMVVSELTSTIRKCSEKLQQYPRLREEMERIVTTHIREREGRTKEQVMLLIDIELAYMNTNHEDFIGFANAQQRSNQMNKKKTSGNQDEILVIRKGWLTINNIGIMKGGSKEYWFVLTAENLSWYKDDEEKEKKYMLSVDNLKLRDVEKGFMSSKHIFALFNTEQRNVYKDYRQLELACETQEEVDSWKASFLRAGVYPERVGDKEKASETEENGSDSFMHSMDPQLERQVETIRNLVDSYMAIVNKTVRDLMPKTIMHLMINNTKEFIFSELLANLYSCGDQNTLMEESAEQAQRRDEMLRMYHALKEALSIIGDINTTTVSTPMPPPVDDSWLQVQSVPAGRREPTSEPTPQRRAPAVPPARPGSRGPAPGPPPAGSALGGAPPVPSRPGASPDPFGPPPQVPSRPNRAPPGVPSRSGQASPSRPESPRPPFDL
# modifications: left off: large carriers
# B3: DynI-PB2-GFP: GFP-tagged dynamin I with Arg-772 and Arg-773 mutated to Glu; fails to bind syndapin I (protein)
# chain: MGNRGMEDLIPLVNRLQDAFSAIGQNADLDLPQIAVVGGQSAGKSSVLENFVGRDFLPRGSGIVTRRPLVLQLVNSTTEYAEFLHCKGKKFTDFEEVRLEIEAETDRVTGTNKGISPVPINLRVYSPHVLNLTLVDLPGMTKVPVGDQPPDIEFQIRDMLMQFVTKENCLILAVSPANSDLANSDALKIAKEVDPQGQRTIGVITKLDLMDEGTDARDVLENKLLPLRRGYIGVVNRSQKDIDGKKDITAALAAERKFFLSHPSYRHLADRMGTPYLQKVLNQQLTNHIRDTLPGLRNKLQSQLLSIEKEVDEYKNFRPDDPARKTKALLQMVQQFAVDFEKRIEGSGDQIDTYELSGGARINRIFHERFPFELVKMEFDEKELRREISYAIKNIHGIRTGLFTPDLAFEATVKKQVQKLKEPSIKCVDMVVSELTSTIRKCSEKLQQYPRLREEMERIVTTHIREREGRTKEQVMLLIDIELAYMNTNHEDFIGFANAQQRSNQMNKKKTSGNQDEILVIRKGWLTINNIGIMKGGSKEYWFVLTAENLSWYKDDEEKEKKYMLSVDNLKLRDVEKGFMSSKHIFALFNTEQRNVYKDYRQLELACETQEEVDSWKASFLRAGVYPERVGDKEKASETEENGSDSFMHSMDPQLERQVETIRNLVDSYMAIVNKTVRDLMPKTIMHLMINNTKEFIFSELLANLYSCGDQNTLMEESAEQAQRRDEMLRMYHALKEALSIIGDINTTTVSTPMPPPVDDSWLQVQSVPAGEESPTSSPTPQRRAPAVPPARPGSRGPAPGPPPAGSALGGAPPVPSRPGASPDPFGPPPQVPSRPNRAPPGVPSRSGQASPSRPESPRPPFDL
# modifications: left off: large carriers
# Assays:
# [1] = system: cerebellar granule neurons (CGNs); assay: FM4-64 SV turnover in transfected cerebellar granule neurons (Example 1); format: cell-based, rat; details: for total SV recycling pool (FM4-64): two sequential KCl stimuli
# Procedure: Primary cerebellar granule neuron (CGN) cultures were prepared from 7-day old Sprague-Dawley rat pups as previously described (Tan et al. 2003). In brief, neurons were plated on poly-D-lysine coated glass coverslips at a density of 1.5×10^5 cells/coverslip. Neurons were cultured in MEM containing Earle's salts plus 10% (v/v) foetal calf serum, 25 mM KCl, 30 mM glucose, 2 mM glutamine, 100 U/ml penicillin and 100 μg/ml streptomycin at 37° C., in a humidified atmosphere of 5% CO2. The culture medium was supplemented with 10 μM cytosine arabinoside after 24 hours. Transfections were carried out using an established calcium phosphate precipitation protocol. CGNs were transiently transfected with 1.5 μg of DNA between 7-10 days in vitro and were used 48 h later.
# The effect of overexpression of dynamin I-GFP constructs on SV recycling in CGNs was monitored using the styryl dye FM4-64 (Molecular Probes). The extent of FM4-64 loading was quantified by normalising the fluorescence value at the start of stimulation to an arbitrary value and monitoring the total decrease on unloading with a dual KCl stimulus. The rate of FM4-64 unloading (as a measure of SV exocytosis) was estimated by determining the time taken for individual nerve terminals to lose 50% of their dye content on stimulation of unloading. These values were normalised to untransfected nerve terminals within the same field of view. SV exocytosis and recycling was also monitored using the pH-sensitive VAMP-GFP (synaptopHluorin). Dynamin constructs linked to mCerulean rather than to GFP were used in this part of the study. CGNs were co-transfected with synaptopHluorin and either DynI^WT-mCerulean, DynI^dmA-mCerulean or Dyn^dmE-mCerulean and stimulated with 50 mM KCl for 20 sec. The evoked synaptopHluorin response was recorded at 500 nm excitation and 510-550 nm emission (mCerulean fluorescence was not detectable at this wavelength). Co-expression of dynamin I was confirmed by recording at 430 nm excitation. Responses were analysed by calculating the increased fluorescence of synaptopHluorin over baseline for individual nerve terminals and then normalising the maxima and minima to 1 and 0.
# To show the key role of the phosphorylation sites by independent methods in cultured neurons their role in SV turnover in nerve terminals of CGNs transfected with dynamin I-GFP was examined. SV turnover in neurons transfected with DynI^WT-GFP was indistinguishable from that in untransfected neurons (FIG. 6a-c). […] The extent of HM4-64 accumulation and thus SV turnover, was quantified from the change in fluorescence (AF) by unloading the CGN terminals with two sequential KCl stimuli (S1 and S2) (FIG. 6j). The total SV recycling pool was reduced by approximately 70% in CGNs transfected with DynI^dmA-GFP (28±3.5% of control) and 40% with DynI^dmE-GFP (64.4±6.2% of control) (FIG. 6k). However, transfection of DynI^WT-GFP had no detectable effect (100.1±5.2% of control, FIG. 6k).
# [2] = system: cerebellar granule neurons (CGNs); assay: FM4-64 synaptic vesicle recycling in transfected CGNs (Example 2); format: cell-based, rat; details: single 50 mM KCl stimulus
# Procedure: The effect of overexpression of dynamin constructs on synaptic vesicle recycling in CGNs was monitored using the styryl dye FM4-64. Neurons were removed from the culture medium and left to repolarise for 10 min in incubation medium (170 mM NaCl, 3.5 mM KCl, 0.4 mM KH2PO4, 20 mM TES (N-tris[hydroxy-methyl]-methyl-2-aminoethane-sulphonic acid), 5 mM NaHCO3, 5 mM glucose, 1.2 mM Na2SO4, 1.2 mM MgCl2, 1.3 mM CaCl2, pH 7.4). Neurons were then loaded with FM4-64 by evoking SV recycling using KCl stimulation medium (incubation medium supplemented with 50 mM KCl and 10 μM FM4-64, 50 mM NaCl being removed to maintain osmolarity) for 2 min. Cells were washed with incubation medium and mounted on an epifluorescence microscope (Olympus IX81). After 10 min, FM4-64 was unloaded from the cells by exposure to a 30 s pulse of stimulation medium. Transfected neurons were visualised using a Olympus Plan-Apochromat x40 objective at 480 nm excitation and a band-pass emission filter of 515-555 nm. FM4-64 unloading was monitored at 555 nm excitation and a long pass emission filter of 600 nm. The decrease in fluorescence intensity of FM4-64 loaded nerve terminals on stimulation was visualised using a Hammamatsu Orca-ERG CCD digital camera (Hammamatsu City, Japan) and Metamorph 6.3 imaging software (Molecular Devices, Downingtown, Pa.). The extent of FM4-64 unloading was quantified by normalising the fluorescence value at the start of stimulation to an arbitrary value and monitoring the total decrease in fluorescence on unloading with the KCl stimulus. The kinetics of FM4-64 unloading were estimated by normalising the start and completion of unloading to 1 and 0 respectively. Other methods employed in this study are as described in Example 1.
# Synaptic vesicle turnover in neurons transfected with DynI-WT-GFP was indistinguishable from that in untransfected neurons. […] The extent of synaptic vesicle turnover was quantified by unloading the terminals with a single 50 mM KCl stimulus, which is considered mild. The total synaptic vesicle recycling pool was unaffected in CGNs transfected with DynI-WT-GFP, while after transfection with DynI-2B-GFP it was reduced. The inhibition can be solely accounted for by an effect on SV endocytosis, since there was no effect on the kinetics of dye unloading. Next, the effects of DynI-PB2-GFP and DynI-3B-GFP on SVE were examined. These two mutants were chosen since they specifically fail to bind syndapin I and endophilin I, respectively, providing a clear distinction between them.
# Again, there was no effect on exocytosis, indicating an inhibition of SVE.
Molecule,reduction of total SV recycling pool / SV turnover [1],total SV recycling pool (FM4-64) [1],total synaptic recycling pool (FM4-64) [2]
B1,approximately 70%,28±3.5 % of control,–
B2,~40%,64.4±6.2 % of control,–
B3,–,–,59.5±4.3 % of control
